# Where two headings read alike, the source gives them in different places.
# B1: M6903 (anti-TIM3-3903E11(VL1.3,VH1.2)-IgG2h(FN-AQ,322A)-delK) (antibody, V domains shown)
# VH: not shown
# VL: QSALTQPRSVSGSPGQSVTISCTGTSSDVGGYNYVSWYQQHPGKAPKLMIYDVSKRPSGVPDRFSGSKSGNTASLTISGLQAEDEADYYCSSYADSVVFGGGTKVTVLG
# notes: Anti-TIM-3 (A16-019-1), used in the target occupancy assay, is said to be identical to M6903 but produced in Expi293F instead of CHOK1SV cells; it is kept under this molecule; also called 3903E11 (VL1.3,VH1.2)-IgG2h(FN-AQ,322A)-delK antibody; anti-TIM-3 (A16-019-1)
# Columns and labels:
# [1] = target: T1, T Cell Immunoglobulin and Mucin Domain-3 (TIM-3) on human blood cells (human, UniProt Q8TDQ0 22-301); experiment: Flow cytometry on human whole blood, target occupancy on CD14+ monocytes, donor KP46315. Unoccupied TIM-3 was detected with the competing anti-TIM-3 (2E2)-APC.
# T1 construct: whole, on cells; also called TIM-3 on CD14+ monocytes; HAVCR2
# [2] = target: T2, wild-type human TIM-3 (hu TIM-3) (human, UniProt Q8TDQ0 22-200, limits assumed); experiment: SPR (Biacore 4000), antibody captured via anti-human Fc
# T2 construct: Soluble protein used for SPR; also called wild-type TIM-3
# [3] = target: T2, wild-type human TIM-3 (hu TIM-3); experiment: as above; remark: listed apart in the source
# rhTIM-3-Fc AF647 = target: T3, rhTIM-3-Fc AF647 (human, UniProt Q8TDQ0 22-200, AF647 label); experiment: flow cytometry; M6903 pre-incubated with rhTIM-3-Fc AF647, inhibition of its binding to PtdSer on apoptotic Jurkat cells
# T3 construct: also called rhTIM-3 AF647; not shown: Fc part
# [4] = target: T1, T Cell Immunoglobulin and Mucin …; experiment: flow cytometry, target occupancy on CD14+ monocytes in human whole blood; unoccupied TIM-3 detected with the competing anti-TIM-3(2E2)-APC; average of 10 donors
# [5] = target: T1, T Cell Immunoglobulin and Mucin …; experiment: Flow cytometry on human whole blood, target occupancy on CD14+ monocytes, donor KP46231. Unoccupied TIM-3 was detected with the competing anti-TIM-3 (2E2)-APC.
# [6] = target: T1, T Cell Immunoglobulin and Mucin …; experiment: Flow cytometry on human whole blood, target occupancy on CD14+ monocytes, donor KP46318 (assigned by elimination of the other line styles). Unoccupied TIM-3 was detected with the competing anti-TIM-3 (2E2)-APC.
binder,measurement,setting,value
B1,EC50 (read off the curve),[1],~0.07 µg/mL
same,Kd,[2],6.2 nM
same,Kd,[3],5.7 nM
same,IC50,rhTIM-3-Fc AF647,4.44 nM
same,EC50,[4],0.111 µg/mL
same,EC50 (read off the curve),[5],~0.07 µg/mL
same,EC50 (read off the curve),[6],~0.07 µg/mL

# — US20220073616A1 (Merck KGaA, published 2022)
